The target in the assay is T1, human amylin receptor (AMY3) on CHO-K1/Ga15/AMY3 cells (human, UniProt P30988 25-474; O60896 24-148).
T1 sequence (looked up) 1: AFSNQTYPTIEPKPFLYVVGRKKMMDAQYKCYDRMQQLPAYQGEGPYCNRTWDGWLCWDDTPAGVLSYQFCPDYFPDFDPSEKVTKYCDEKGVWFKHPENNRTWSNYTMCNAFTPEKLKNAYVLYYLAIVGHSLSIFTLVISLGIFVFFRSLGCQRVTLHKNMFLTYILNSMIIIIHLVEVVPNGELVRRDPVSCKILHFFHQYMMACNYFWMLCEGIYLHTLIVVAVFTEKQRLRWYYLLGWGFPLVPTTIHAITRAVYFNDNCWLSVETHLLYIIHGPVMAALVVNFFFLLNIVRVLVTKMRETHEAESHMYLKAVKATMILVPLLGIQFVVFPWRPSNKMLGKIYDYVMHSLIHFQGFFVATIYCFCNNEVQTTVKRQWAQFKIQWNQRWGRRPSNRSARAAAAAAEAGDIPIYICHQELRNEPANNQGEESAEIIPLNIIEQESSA
T1 sequence (looked up) 2: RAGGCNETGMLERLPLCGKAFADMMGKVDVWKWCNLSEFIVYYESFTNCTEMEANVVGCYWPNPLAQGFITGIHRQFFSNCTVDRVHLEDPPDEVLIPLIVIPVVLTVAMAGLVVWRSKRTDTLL
Description: cell-based or functional assay.

*1 amine or outer side, *2 acyl side, *3 side chain or, on linkers, in order; H or OH if unused. Bridges are numbered along the chain shown (N, C = ends). [ ]: non-standard residue; d: D form. The star is where a group is joined. C20 diacid = O=C(O)CCCCCCCCCCCCCCCCCCC(=O)*; γGlu = O=C(O)[C@H](CCC(=O)[*:2])N[*:1]; Hyp = O=C(O)[C@@H]1C[C@@H](O)CN1

B1: PD159 (peptide)
peptide: {C20 diacid-γGlu}-KCNTATCATQRLADFLRHSSNNLHPILPPTNVGSNT[Hyp]-NH2
modifications: disulfide 2-7 (inferred)
Regarding B1, the “EC50, CRE-luciferase assay” value worked out at 0.037 nM.

For the origin of these results see patent US20260115256A1 (HANGZHOU SCIWIND BIOSCIENCES, published 2026).
